Measurements from patent US11661461B2, “Phospho-Rab antibodies, assays and methods of use thereof” (Denali Therapeutics Inc., priority 2017, dated 2023).
“Also recorded” adds a separate entry of the source.

T1: endogenous phosphorylated Rab10 in human PBMC (Homo sapiens, UniProt P61026)
T1 construct: Strong endogenous phosphorylated Rab10 or phosphorylated Rab8a in human PBMC; host or cells: human PBMC
T1 sequence (P61026 1-200): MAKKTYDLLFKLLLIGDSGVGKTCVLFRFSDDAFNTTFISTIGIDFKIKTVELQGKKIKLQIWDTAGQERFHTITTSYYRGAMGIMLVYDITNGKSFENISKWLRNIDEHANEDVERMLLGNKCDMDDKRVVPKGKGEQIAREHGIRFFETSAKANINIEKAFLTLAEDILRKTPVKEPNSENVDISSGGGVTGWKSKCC

T2: phosphorylated Rab10 in lysates of HEK cells overexpressing LRRK2 (Homo sapiens, UniProt P61026)
T2 construct: expressed in transfected cells; host or cells: HEK cells overexpressing LRRK2
T2 sequence (P61026 1-200): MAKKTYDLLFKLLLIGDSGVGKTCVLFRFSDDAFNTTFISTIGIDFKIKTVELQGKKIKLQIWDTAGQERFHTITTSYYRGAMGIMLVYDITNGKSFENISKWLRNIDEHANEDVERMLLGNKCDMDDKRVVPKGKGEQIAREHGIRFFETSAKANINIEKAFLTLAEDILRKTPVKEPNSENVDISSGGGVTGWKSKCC

T3: endogenous phosphorylated Rab8a in human PBMC (Homo sapiens, UniProt P61006)
T3 construct: Strong endogenous phosphorylated Rab10 or phosphorylated Rab8a in human PBMC; host or cells: human PBMC
T3 sequence (P61006 1-207): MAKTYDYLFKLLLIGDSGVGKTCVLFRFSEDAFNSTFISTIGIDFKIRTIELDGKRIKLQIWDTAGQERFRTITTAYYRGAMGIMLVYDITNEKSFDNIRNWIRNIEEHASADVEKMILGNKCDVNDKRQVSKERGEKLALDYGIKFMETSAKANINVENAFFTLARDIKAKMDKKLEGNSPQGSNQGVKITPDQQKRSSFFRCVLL

T4: pT73-Rab10 (Homo sapiens, UniProt P61026)
T4 construct: Strong endogenous phosphorylated Rab10 or phosphorylated Rab8a in human PBMC; host or cells: human PBMC
T4 sequence (P61026 1-200): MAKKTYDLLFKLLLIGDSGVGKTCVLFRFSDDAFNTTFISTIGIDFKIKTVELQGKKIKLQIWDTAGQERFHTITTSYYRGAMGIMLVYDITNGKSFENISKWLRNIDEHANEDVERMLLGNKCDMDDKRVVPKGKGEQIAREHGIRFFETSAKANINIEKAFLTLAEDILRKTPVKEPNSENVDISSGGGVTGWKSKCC

B1: Clone 81-11: anti-phosphorylated (pT73) Rab10 rabbit monoclonal antibody; VH SEQ ID NO:21, VL SEQ ID NO:25 (antibody, V domains shown)
VH: METGLRWLLLVAVLKGVQCQSVEESGGRLVTPGTPLTLTCTVSGFSLSSYAMSWVRQAPGKGLEYIGLFNDVGIAYYANWAKGRFTFSKTSTTVDLKITSPTTEDTATYFCARVGGTTRVYGMDLWGPGTLVTVSS
VL: MDTRAPTQLLGLLLLWLPGATFAAVLTQTPSPVSAAVGGTVSISCQSSKSVRHNNYLSWYQQKPGQRPKLLIYGASTLASGVPSRFSGSGSGTEFTLTISDVQCDDAATYYCAGGYSGGGDDAFGGGTEVVVE
B2: Clone 20: anti-phosphorylated (pT72) Rab8a rabbit monoclonal antibody; VH SEQ ID NO:63, VL SEQ ID NO:66 (antibody, V domains shown)
VH: METGLRWLLLVAVLKGVQCQSVEESGGRLVTPGTPLTLTCTVSGFSLSSYAMGWVRQAPGEGLEYFGIINTGGSAYYTNWAKGRFTISRTSTTVHLKITSPTTEDTATYFCARIAGDTRYYGMDPWGPGTLVTVSS
VL: MDTRAPTQLLGLLLLWLPGATFAAVLTQTPSPVSAAVGGTVSISCQSSKSVRNNNYLAWYQQKPGQPPKLLIYGASTLASGVPSRFKGSGSGTQFTLTISDVQCDDAATYYCAGGYDGGSDDAFGGGTEVVVK
B3: Clone 19-4: anti-phosphorylated (pT73) Rab10 rabbit monoclonal antibody; VH SEQ ID NO:17, VL SEQ ID NO:18 (antibody, V domains shown)
VH: METGLRWLLLVAVLKGVQCQSVEESGGRLVTPGTPLTLTCTVSGFSLSSYAMVWVRQAPGKGLEYIGLISRSGVTYYATWAKGRFTISKASTTVDLKIASPTTGDTATYFCVRDYDSAGWSGFTIWGPGTLVTVSA
VL: MDTRAPTQLLGLLLLWLPGAICDPVMTQTPSSTSAAVGGTVTINCQSSQSVYGNNYLSWYQQKPGQPPKLLIYKASTLASGVPSRFVGSGSGTQFTLTISDLECDDAATYYCAGAASDTRFFGGGTELVVN
B4: Clone 86-9: anti-phosphorylated (pT72) Rab8a rabbit monoclonal antibody; VH SEQ ID NO:81, VL SEQ ID NO:85 (antibody, V domains shown)
VH: METGLRWLLLVAVLKGVQCQSVEESGGRLVTPGTPLTLTCTVSGFSLSSYYITWVRQAPGKGLEWLGIMNAGTTVHYANWVKGRFAISKTSTTVDLKITSPTTEDTATYFCARARNSVWMDIWGPGTLVTVSL
VL: MDTRAPTQLLGLLLLWLPGATLAAVLTQTPSPVSGAVGGSVTVNCQSDKSVYRDNLAWYQQKPGQPPKLLIYKASTLASGVPSRFRGSGAGTQFTLTISDVQCDDAATYFCAGGYSSDSDTAFGGGTEVVVK
B5: Clone 71-3: anti-phosphorylated (pT72) Rab8a rabbit monoclonal antibody; VH SEQ ID NO:71, VL SEQ ID NO:75 (antibody, V domains shown)
VH: METGLRWLLLVAVLKGVQCQSVEESGGRLVTPGTPLTLTCTASGFSLNVYYMTWVRQAPGKGLDWIGIINTDITVHYANWARGRFTISKTSTTVDLKITSPTTEDTATYFCARARNSAWMDIWGPGTLVTVSL
VL: MDTRAPTQLLGLLLLWLPGATFAAVLTQTPSPVSAAVGGTVTINCQSDWSVYNNNLAWYQHKPGQPPKLLIYKTSTLASGVPSRFRGSGSGTQFTLTISDVQCDDTATYYCAGGYYRDSDTAFGGGTEVVVK

How the values were obtained:
LRRK2 = assay: 7 days of dosing in cynomolgus monkeys, pT73-Rab10 and pS935-LRRK2 western blot; assay type: in vivo, cynomolgus monkey; settings: 45 mg/kg daily
Experimental: Phosphorylated Rab10 was also tested in cynomolgus monkey lung and kidney tissue following 7 days of dosing with a LRRK2 inhibitor. Cynomolgus monkeys were dosed daily with the LRRK2 Inhibitor C at a dose of 45 mg/kg. […] Signals from dosed groups were normalized to vehicle control group. Data were presented as mean with SEM.

[1] = target: T1, endogenous phosphorylated Rab10 in human PBMC; assay: Western blot of human PBMC with anti-pT73-Rab10 antibodies; assay type: binding; settings: for detection of endogenous phosphorylated Rab10 signals in human PBMC by western blot: antibody at 1 ug/ml; for Western blot Human PBMC Ratio of DMSO/LRRK2 inhibitor A (mean ± SEM): band intensity normalized with Actin control for each of DMSO and LRRK2 inhibitor A, antibody 1 ug/ml
[2] = target: T2, phosphorylated Rab10 in lysates of HEK cells overexpressing LRRK2; assay: Sandwich ELISA (diagnostic), HEK cells overexpressing LRRK2; assay type: binding; settings: for Sandwich ELISA (diagnostic), Ratio: DMSO / LRRK2 inhibitor A RLU; for Sandwich ELISA (diagnostic) HEK cells overexpressing LRRK2, DMSO (RLU mean ± SD): DMSO treated cells; for Sandwich ELISA (diagnostic) HEK cells overexpressing LRRK2, LRRK2 inhibitor A (RLU mean ± SD): cells treated with LRRK2 inhibitor A
Experimental: Sandwich ELISA (Diagnostic) with Anti-Phospho-Rab10 Antibody as the Capture Antibody:
ELISA plates were prepared by coating white Nunc MaxiSorp 384 well plates (Thermo Fisher #460372/Sigma #P6491) with capture antibody for 1 hour at room temperature on a shaking platform. The capture antibody was purified anti-phospho-Rab10 clone 19-4 diluted to 1 ug/mL in carbonate-bicarbonate buffer, and 15 uL/well of coating solution was added to the plate before incubation. Plates were then washed 3× with TBST on a BioTek plate washer. For all subsequent blocking/incubation steps, Pierce Starting Block T20 (TBS) was used (Thermo Fisher #37543). Plates were blocked […] in this solution using 80 uL/well and washed 3× as before. Afterwards samples of cell lysates were added (neat with no dilution) using 30 uL/well and incubated 1 hour at room temperature on a shaking platform. After another 3× wash detection antibody (Creative Diagnostics DCABH 13141, or Abcam, ab104859, 2 ug/mL) was added using 30 uL/well. After 60 minute incubation at room temperature and washing 3×, the secondary anti-species conjugate was added (anti-rabbit HRP antibody (Jackson ImmunoResearch 111-035-144) diluted 1:20000 in assay diluent) at 30 uL/well. After a 60 minute incubation, plates were washed 3× as before. The HRP substrate (Supersignal ELISA Femto HRP substrate—Thermo Fisher #37075) was prepared during this time by mixing both components and equilibrating to room temperature. 50 uL/well of substrate was added to plates, which then were covered and briefly incubated for 1-2 minutes on a shaker platform. Afterwards plates were read on the Synergy plate reader to measure relative light units (RLU).
Sandwich ELISA (Diagnostic) with Anti-Rab10 (Total) Antibody as the Capture Antibody:
ELISA plates were prepared by coating white Nunc MaxiSorp 384 well plates (Thermo Fisher #460372/Sigma # P6491) with capture antibody overnight at 4° C. on a shaking platform. The capture antibodies (anti-Rab10 antibody from either Creative Diagnostics, DCABH-13141, or Abcam, ab104859) were diluted to […] (or 1:100 if the concentration not known) in carbonate-bicarbonate buffer, and 15 uL/well of coating solution was added to the plate before incubation. After this plates were washed 3× with TBST on a BioTek plate washer. For all subsequent blocking/incubation steps, Pierce Starting Block (TBS) (no Tween added) was used (Thermo Fisher #37542). Plates were blocked for 1 hour at room temperature in this solution using 80 uL/well and washed 3× as before. Afterwards samples were added (with lysates being diluted 1:20 in the assay diluent) using 30 uL/well and incubated 2 hours at room temperature on a shaking platform. After another 3× wash detection antibodies were added (diluted to 1 ug/mL for purified antibodies or 1:2 for supernatants) using 30 uL/well. After 90 minute incubation at room temperature and washing 3× the secondary anti-species conjugate was added (anti-rabbit HRP antibody (Jackson ImmunoResearch 111-035-144) diluted 1:20000 in assay diluent) at 30 uL/well. After a 45 minute incubation plates were washed 3× as before. The HRP substrate (Supersignal ELISA Femto HRP substrate—Thermo Fisher #37075) was prepared during this time by mixing both components and equilibrating to room temperature. 50 uL/well of substrate was added to plates, which then were covered and briefly incubated for 1-2 minutes on a shaker platform. Afterwards plates were read on the Synergy plate reader to measure relative light units (RLU).

[3] = target: T3, endogenous phosphorylated Rab8a in human PBMC; assay: Western blot of human PBMC with anti-pT72-Rab8a antibodies; assay type: binding; settings: for detection of endogenous phosphorylated Rab8a signals in human PBMC by western blot: antibody at 1 ug/ml; for Western blot Human PBMC Ratio of DMSO/LRRK2 inhibitor A (mean ± SEM): band intensity normalized with Actin control for each of DMSO and LRRK2 inhibitor A, antibody 1 ug/ml
pT73-Rab10 = target: T4, pT73-Rab10; assay: Phospho-Rab10 MSD assay (clone 19-4 as capture antibody); assay type: binding; settings: anti-total Rab10 antibody for detection
[4] = normalized to actin and vehicle control group, mean with SEM, N = 4
[5] = normalized to vinculin and vehicle control group, mean with SEM, N = 4

Molecule | Western blot Human PBMC Ratio of DMSO/LRRK2 inhibitor A (mean ± SEM) [1] | Sandwich ELISA (diagnostic), Ratio [2] | Sandwich ELISA (diagnostic) HEK cells overexpressing LRRK2, DMSO (RLU mean ± SD) [2] [RLU] | Sandwich ELISA (diagnostic) HEK cells overexpressing LRRK2, LRRK2 inhibitor A (RLU mean ± SD) [2] [RLU] | Western blot Human PBMC Ratio of DMSO/LRRK2 inhibitor A (mean ± SEM) [3] | detection of endogenous phosphorylated Rab8a signals in human PBMC by western blot [3] | also measured
Cc1nn(C(C)(C)c2ncn(C)n2)cc1Nc1ncc(C(F)(F)F)c(C2CC2)n1 [LRRK2 Inhibitor C, 4-cyclopropyl-N-(3-methyl-1-(2-(1-methyl-1H-1,2,4-triazol-3-yl)propan-2-yl)-1H-pyrazol-4-yl)-5-(trifluoromethyl)pyrimidin-2-amine] | – | – | – | – | – | – | dephosphorylation of pT73-Rab10 and pS935-LRRK2 (LRRK2; lung and kidney): significant dephosphorylation; pT73-Rab10, Kidney (LRRK2; [4]): 0.547 ± 0.125; pT73-Rab10, Lung (LRRK2; [4]): 0.189 ± 0.0562; pS935-LRRK2, Kidney (LRRK2; [5]): 0.0563 ± 0.0147; pS935-LRRK2, Lung (LRRK2; [5]): 0.102 ± 0.0215
B1 | 2.48 ± 0.31 | 33.74 | 473585 ± 44210 | 14037 ± 1627 | – | – | detection of endogenous phosphorylated Rab10 signals in human PBMC by western blot [1]: detected endogenous phosphorylated Rab signals
B2 | – | – | – | – | 3.50 ± 0.52 | – | detection of endogenous phosphorylated Rab8a signals in human PBMC by western blot ([3]; listed as 20): detected endogenous phosphorylated Rab signals
B3 | 2.95 ± 0.68 | 37.40 | 80524 ± 7835 | 2153 ± 774 | – | – | pRab10 signals in phospho-Rab10 MSD assay (pT73-Rab10; human A549 cells, listed as 19-4): showed pRab10 signals; pRab10 signals in phospho-Rab10 MSD assay (pT73-Rab10; human PBMCs): showed pRab10 signals; detection of endogenous phosphorylated Rab10 signals in human PBMC by western blot ([1]; listed as 19-4): detected endogenous phosphorylated Rab signals; also recorded: Detection of phosphorylated Rab10
B4 | – | – | – | – | 2.26 ± 0.12 | detected endogenous phosphorylated Rab signals | –
B5 | – | – | – | – | 2.61 ± 0.42 | detected endogenous phosphorylated Rab signals | –
